The target of experiment [1] is pxEBN4-ACE2-AAA-His (human) (UniProt Q9BYF1).
For experiment [2] the target is unchanged. This is another data set of the same source.

The source of these data is patent US20240400618A1.

Read-outs that look alike come from different tables or passages of the source.
Further: test concentration or dose not given here.

For “pxENB8-FLS-TN-His (from UniProt P0DTC2 15-1213) (ligand)”, the Response, shift in Wavelength (nm) in experiment [1] stood at 0.0591 nm.

As to “pxENBCP17-FLS-CT-His-SBP (from UniProt P0DTC2 15-1213) (ligand)”, in experiment [2], the Response, shift in Wavelength (nm) is 0.0382 nm.

On to “pxENB17-RBD-His (from UniProt P0DTC2 319-541) (ligand)”, for which, in experiment [1], the Response, shift in Wavelength (nm) is 0.301 nm.

For the substance “pxENBCP19-FLS-CT-His-StrepTagII (from UniProt P0DTC2 15-1213) (ligand)”, the Response, shift in Wavelength (nm) in experiment [2] is 0.042 nm.

Consider “pxENBCP20-FLS-CT-His-TST (from UniProt P0DTC2 15-1213) (ligand)”, for which the Response, shift in Wavelength (nm) in experiment [2] was 0.0719 nm.

Turning to “pxENB2-His-TEV-FLS-CT (from UniProt P0DTC2 14-1213) (ligand)”, in experiment [1], the Response, shift in Wavelength (nm) was determined as 0.344 nm.

Turning to “pxENB5-his-TEV-FLS (from UniProt P0DTC2 14-1213) (ligand)”, the Response, shift in Wavelength (nm) in experiment [1] was 0.185 nm.

“pxENBEP18_Spike_Nuc(1-182)_10xHis (ligand)”: in experiment [1], the Response, shift in Wavelength (nm) is 0.277 nm.

“pxEBNCP15-mIgGHC-FLS-CT-His (from UniProt P0DTC2 16-1213) (ligand)”: the Response, shift in Wavelength (nm) in experiment [1] is 0.492 nm.

As for “pxENBEP17_TPA_Nuc(1-182)_Spike (15-1216, GAAS, PP)_10xHis (ligand)”, the Response, shift in Wavelength (nm) in experiment [1] is 0.232 nm.

Turning to “pxENB12-FLS-His (from UniProt P0DTC2 15-1213) (ligand)”, the Response, shift in Wavelength (nm) in experiment [1] is 0.127 nm.

Turning to “pxEBNCP16-IL2-FLS-CT-His (from UniProt P0DTC2 16-1213) (ligand)”, the Response, shift in Wavelength (nm) in experiment [1] turned out to be 0.145 nm.

As to “pxENB1-His-TEV-FLS-TN (from UniProt P0DTC2 14-1213) (ligand)”, in experiment [1], the Response, shift in Wavelength (nm) amounted to 0.0257 nm.

With “pxENB9-FLS-CT-His (from UniProt P0DTC2 15-1213) (ligand)”, the Response, shift in Wavelength (nm) in experiment [1] is 0.555 nm.

As for “pxENB14-His-TEV-RBD (from UniProt P0DTC2 319-541) (ligand)”, in experiment [1], the Response, shift in Wavelength (nm) came to 0.304 nm.

In the case of “pxEBNCP14-tPa-FLS-CT-His (from UniProt P0DTC2 16-1213) (ligand)”, in experiment [1], the Response, shift in Wavelength (nm) was 0.529 nm.
